Measured values: the nanobody polyreactivity screen of Harvey et al. (2022)

test: yeast display, Sf9 membrane polyspecificity reagent, FACS + sequencing; frameworks hold sequencing errors
Method in brief: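 Polyreactivity labels are assigned by the sorting gate from which each nanobody was recovered. The gates were low and high (top ~1%), set on anti-HA fluorescence for expression and streptavidin fluorescence for reagent binding. Before sorting, galactose-induced (36–48 hours) yeast display cells were stained for 1 hour at 4 °C with 10% biotinylated, detergent-solubilized Sf9 membrane reagent.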

**Q.** With “QVQLVESGGGLVQAGGSLRLSCAASGYIFGHYAMGWYRQAPGKERELVAGITWRGGSTYYADSVKGRFTISRDNAKNTVYLQMNSLKPEDTAVYYCNAQYTQRWPYGLYYEMDYWGQGTQVTVSS” as the sequence, how does the “polyreactivity (PSR sort gate)” value read?
**A.** low polyreactivity

**Q.** With “QVQLVESGGGLVQAGGSLRLSCAASGYIFGHYTMGWYRQAPGKERELVAGISSGGITYYADSVKGRFTISRDNAKNSDYLQMNSLKPEDTAVYYCAAYWRRRLDYYYWGQGTQVTVSS” as the sequence, how does the “polyreactivity (PSR sort gate)” value read?
**A.** high polyreactivity

**Q.** For “QVQLVESGGGLVQAGGSLRLSCAASGYIFGNYAMGWYRQAPGKERELVAAISKSGVTTYYADSVKGRFTISRDNAKNTVYLQMNSLKPEDTAVYYCNARSWRPINARYNEYDYWGQGTQVTVSS”, which “polyreactivity (PSR sort gate)” value is on record?
**A.** low polyreactivity

**Q.** With “QVQLVESGGGLVQAGGSLRLSCAASGYIFGVYAMGWYRQAPGKERELVAVITVTGGSTYYADSVKGRFTISRDNAKNTVYLQMNSLKPEDTAVYYCAARGYGNLARVYHGYGYWGQGTQVTVSS” as the sequence, how does the “polyreactivity (PSR sort gate)” value read?
**A.** high polyreactivity

**Q.** For “QVQLVESGGGLVQAGGSLRLSCAASGYIFGYNAMGWYRQAAGQERELVAAITYSGGNTYYADSVKGRFTISRDNANNTVYLQMNSLKPEDTAVYYCAADFLYGAEGNEYWGQGTQVTVSS”, which “polyreactivity (PSR sort gate)” value is on record?
**A.** high polyreactivity

**Q.** With “QVQLVESGGGLVQAGGSLRLSCAASGYIFGYYVMGWYRQAPGKERELVAAITGRGGSTYYADSVKGRFTISRDNAKNTVYLQMISLKPEDTAVYDCAADATSYPYDPWHLYEIWEYYYWGQGTQVTVSS” as the sequence, how does the “polyreactivity (PSR sort gate)” value read?
**A.** low polyreactivity

**Q.** With “QVQLVESGGGLVQAGGSLRLSCAASGYIFHLYGMGWYRQAPGKERELVARISYRGGSTYYADSVKGRFTISRDNAKNTVYLQMNSLKPEDTAVYYCAKDYYKHYYWGQGTQVTVSS” as the sequence, how does the “polyreactivity (PSR sort gate)” value read?
**A.** high polyreactivity

**Q.** With “QVQLVESGGGLVQAGGSLRLSCAASGYIFHRYAMGWYRQAPGKERELVAAITWTGARTYYADSVKGRFTISRDNAKNTVYLQMNSLKPEDTAVYYAAPASYSFAKSGYWGQGTQVTVSS” as the sequence, how does the “polyreactivity (PSR sort gate)” value read?
**A.** high polyreactivity

**Q.** For “QVQLVESGGGLVQAGGSLRLSCAASGYIFIFYAMGWYRQAPGKDRELVAAITDSGGSTYYADSVKGRFTISRDNAQNTVYLQKNSLKPEDTAVYYCADPYYFYRDRYRLDYWGQGTQVTVSS”, which “polyreactivity (PSR sort gate)” value is on record?
**A.** low polyreactivity

**Q.** With “QVQLVESGGGLVQAGGSLRLSCAASGYIFKNYAMGWYRQAPGKERELVAAITRRGASTYYADSVKGRFTITRDNAKNTVYLQMNSLKPEDTAVYYCAAYPWPPGEYDYWGQGTQVTVSS” as the sequence, how does the “polyreactivity (PSR sort gate)” value read?
**A.** low polyreactivity

**Q.** Which “polyreactivity (PSR sort gate)” value does the source give for “QVQLVESGGGLVQAGGSLRLSCAASGYIFKPNTMGWYRQAPGKERELVAAITRGGRTKYADSVKGRFTISRDNAKNTVYLQMNSLKPEDTAVYYCAAALPVQYRDMYSWGQGTQVTVSS” here?
**A.** high polyreactivity

**Q.** Which “polyreactivity (PSR sort gate)” value does the source give for “QVQLVESGGGLVQAGGSLRLSCAASGYIFKSNVMGWYRQAPGKERELVAAISWSGGRTYYADSVKGRFTISRDNAKNTDYLQMNSLKPEDTAVYYCAAVGRQSNYYVDYDYWGQGTQVTVSS” here?
**A.** high polyreactivity

**Q.** For “QVQLVESGGGLVQAGGSLRLSCAASGYIFKSNVMGWYRQAPGKERELVAAISWSGGRTYYADSVKGRFTISRDNAKNTVYFQRNSLKPEDTAVYYCAAVGRQSNYYVDYDYWGQGTQVTVSS”, which “polyreactivity (PSR sort gate)” value is on record?
**A.** high polyreactivity

**Q.** Which “polyreactivity (PSR sort gate)” value does the source give for “QVQLVESGGGLVQAGGSLRLSCAASGYIFKYNAMGWYRQAPGKERELVAAISGRGGSTYYADSVKGRFTISRDNAKNTVYLQMNSLKPEDTAVYYCNADYQARRYNYWGQGTQVTVSS” here?
**A.** high polyreactivity

**Q.** With “QVQLVESGGGLVQAGGSLRLSCAASGYIFKYYVMGWYIQAPGKERELVAGISSTGGTTYYADSVKGRFTISRDNAKNTVYLQMNSLKPEDSAVYYFAADRVYEASQGYTYFDYDYWGQGTQVTVSS” as the sequence, how does the “polyreactivity (PSR sort gate)” value read?
**A.** low polyreactivity

**Q.** For “QVQLVESGGGLVQAGGSLRLSCAASGYIFLFYGMGWYRQAPGKERELVASITGTGGNTYYADSVKWRFTISRDNAKNTVYLQMNSLKPEDTAVDYCYADDGYSWGYAYYYSELDYWGQGTQVTVSS”, which “polyreactivity (PSR sort gate)” value is on record?
**A.** low polyreactivity
